In one assay the test system is RT4. The assay is described as follows: rTRAIL viability, bladder cancer cell line RT4. It is filed as cell-based. The following applies: nonsense mutation in BAP1. From the text: (§1) FIG. 8A is a graph showing the effect of rTRAIL on the viability of various cancer cell lines. Bladder (RT4) and Breast (HCC1187) cancer cell lines with nonsense mutations in BAP1 show sensitivity to rTRAIL while renal cell cancer cell lines (769P & RCC10RGB) with missense mutation and wild-type renal (BB65RCC) and bladder cancer (SW1710) cell lines are resistant to TRAIL.

A further assay has as its system SW1710. The assay is described as follows: rTRAIL viability, bladder cancer cell line SW1710. It is filed as cell-based. The following applies: BAP1 wild-type.
Description: as §1

For the next assay, the system named is NCI-H226. The assay is described as follows: rTRAIL response, viability assay, NCI-H226. It is filed as cell-based, Human. The following applies: BAP1 HomDel, homozygous. On the procedure: (§2) Manual “single dose” combination screening was undertaken using 96 well formats. Cells were plated on day 1 in previously optimized seeding densities in 180 μl if media. On day 2 20 μl of a 10× concentration of […] was added. Cells were then allowed to grow for 72 hrs or 6 days and fixed at the end of the assay. Drug wells were compared to DMSO treated control wells.
(§3) Single agent high throughput 5 point viability screening was undertaken in 384 well formats using robotic liquid handling with fixing with 4% paraformaldehyde and staining for viability with Syto60 nucleic acid dye (Invitrogen) (see below). Single agent dose response curves were derived for each library of 85-95 drugs according to the experiment used, and log IC50 or area under the curve (AUC) metrics were derived for each library compound in each cell line according to a previously derived formula [18].
(§4) Adherent cell lines were seeded 24 hours before drugging. Cells were trypsinised and counted before seeding at the optimal density for the size of well (96 or 384) and duration of assay. 72 hr after drug treatment cells were fixed with 4% paraformaldehyde for 30 minutes. […] Quantification of fluorescent signal was achieved using excitation/emission wavelength of 630/695 […].

A further assay relates to RCC10RGB. Description: rTRAIL viability, renal cell cancer cell line RCC10RGB. It is filed as cell-based. The following applies: BAP1 missense mutation.
Description: as §1

The test system of a further assay is MDA MB-231. Description: rTRAIL response after BAP1 knockdown in MDA MB-231. It is filed as cell-based. The following applies: MDA MB-231 breast cancer cell line, BAP1 shRNA.
Description: as §1
The deubiquitinase BAP1 is frequently mutated in pleural mesothelioma (36%), uveal melanoma (47%) and intrahepatic cholangiocarcinomas (25%) as previously noted. To determine whether additional BAP1 mutant tumours occur that may also be amenable to this therapeutic approach, the inventors extended this analysis to a cohort of 5180 tumour samples in 20 cancer types using variant data from The Cancer Genome Atlas (TCGA). Truncating BAP1 mutations were also observed in a diverse range of cancer types, with frequencies of up to 6% (see FIGS. 1b, and c) Carbone, M. et al, Nature Reviews Cancer 13, 153-159 (March 2013). When the inventors extended their analysis to a panel of 1001 cancer cell lines that had previously been submitted for whole exome and copy number analysis, they identified 17 cell lines harbouring truncating mutations in BAP1. These included clear cell kidney cancer, bladder cancer and breast cancer cell lines. […]

The next assay deals with 769P. The assay is described as follows: rTRAIL viability, renal cell cancer cell line 769P. In kind it is cell-based. As to conditions: 769P renal; BAP1 missense mutation.
Description: as §1

The test system of a further assay is MPP-89. Description: rTRAIL response, viability assay, MPP-89. In kind it is cell-based, Human. As to conditions: BAP1 Wild-type. As to the method:
as §2, §3, §4

The next assay concerns H2731. The assay is described as follows: rTRAIL response, viability assay, H2731. In kind it is cell-based, Human. As to conditions: BAP1 Essential Splice, heterozygous. As to the method: as §2, §3, §4
In another assay the test system is H2818. The assay is described as follows: rTRAIL response, viability assay, H2818. It is filed as cell-based, Human. As to conditions: BAP1 Wild-type. On the procedure:
as §2, §3, §4

The subject of a further assay is MSTO-211H. The assay is described as follows: rTRAIL response, viability assay, MSTO-211H. In kind it is cell-based, Human. The following applies: BAP1 Wild-type. As to the method: as §2, §3, §4
Another assay deals with H226. The assay is described as follows: rTRAIL response, viability assay, H226. In kind it is cell-based, Human. As to conditions: BAP1 Deletion, Homozygous. On the procedure:
as §2, §3, §4

The next assay deals with H2461. The assay is described as follows: rTRAIL response, viability assay, H2461. It is filed as cell-based, Human. The following applies: BAP1 Deletion - Frameshift, heterozygous. As to the method:
as §2, §3, §4

In the next assay the test system is NCI-H28. Description: rTRAIL response, viability assay, NCI-H28. It is filed as cell-based, Human. The following applies: BAP1 Essential Splice, heterozygous. On the procedure:
as §2, §3, §4

For another assay, the system named is H2369. The assay is described as follows: rTRAIL response, viability assay, H2369. It is filed as cell-based, Human. As to conditions: BAP1 Wild-type. As to the method:
as §2, §3, §4

The test system of another assay is H2373. The assay is described as follows: rTRAIL response, viability assay, H2373. In kind it is cell-based, Human. As to conditions: BAP1 Wild-type. As to the method: as §2, §3, §4
In assay [1] the test system is control normal mesothelial cell line MET-5A. The assay is described as follows: 6-day viability assay, normal mesothelial control line. It is filed as cell-based. The following applies: rTRAIL 40 ng/ml. As to the method: FIG. 2A is a volcano plot showing drug-genome interactions in MPM. […] The Y-axis denotes adjusted p-Value, X-axis denotes effect size. Size of circle indicates number of mutant lines in cohort tested. […] Met 5a is a mesothelial normal control line. FIG. 2C is a scatter plot showing AUC following 6 day viability assay in response to 40 ng/ml rTRAIL (normalised to DMSO treated control) in cell lines discretized by BAP1 mutation status. […] Two-tailed t-test, p=0.015.
as §2
Adherent cell lines were seeded 24 hours before drugging. Cells were trypsinised and counted before seeding at the optimal density for the size of well (96 or 384) and duration of assay. 72 hr after drug treatment cells were fixed with 4% paraformaldehyde for 30 minutes. Following two washes of dH2O 100 μl Syto60 nucleic acid stain (Invitrogen) was added at a final concentration of 1 μM and plates […] for 1 hr at room temperature. Quantification of fluorescent signal was achieved using excitation/emission wavelength of 630/695 […].

B1: rTRAIL: recombinant protein that activates the TRAIL pathway by binding to TRAIL-R1 (DR 4) and TRAIL-R2 (DR 5) (protein, UniProt P50591 1-281, looked up)
Tumor necrosis factor ligand …: MAMMEVQGGPSLGQTCVLIVIFTVLLQSLCVAVTYVYFTNELKQMQDKYSKSGIACFLKEDDSYWDPNDEESMNSPCWQVKWQLRQLVRKMILRTSEETISTVQEKQQNISPLVRERGPQRVAAHITGTRGRSNTLSSPNSKNEKALGRKINSWESSRSGHSFLSNLHLRNGELVIHEKGFYYIYSQTYFRFQEEIKENTKNDKQMVQYIYKYTSYPDPILLMKSARNSCWSKDAEYGLYSIYQGGIFELKENDRIFVSVTNEHLIDMDHEASFFGAFLVG
On to B1, for which the “response to rTRAIL (viability)” value with RT4 is listed as “sensitivity”. The “response to TRAIL (viability)” value in the assay with SW1710, in the assay on RCC10RGB and in the assay on 769P was “resistant” each time. The rTRAIL response result in the assay with NCI-H226 is “Sensitive**”; in the assay with MPP-89 it was “Resistant”; in the assay with H2731, “Sensitive”; in the assay with H2818, “Resistant”; in the assay on MSTO-211H, “Sensitive**”; in the assay on H226, “Sensitive”. Further, the rTRAIL response result was “Sensitive” in the assay with H2461, “Sensitive” with NCI-H28, “Resistant” in the assay on H2369 and “Resistant” in the assay on H2373. The “sensitivity to rTRAIL after knockdown of BAP1” value in the assay on MDA MB-231 is “increases sensitivity”. The “effect on cell viability” value in assay [1] was “no significant effect on cell viability”.
